Laboratory results: paper PMC4619763, “A Novel Highly Thermostable Multifunctional Beta-Glycosidase from Crenarchaeon Acidilobus saccharovorans” (Archaea, 2015)

Key:
[1] = biological target: T1, Asac_1390 (Acidilobus saccharovorans, UniProt D9PZ08); experiment: oNPGal hydrolysis, Cornish-Bowden and Dixon plots; format: biochemical; conditions: mixed inhibition, dissociation constant of the EIS complex; otherwise as the row above
T1 construct: full length, 490 residues, about 55 kDa on SDS-PAGE; pQE60 NcoI/BglII, expressed in E. coli DLT1270 pRARE2; purified by double heat treatment; no secretion signal; no tag mentioned (reverse primer carries the stop codon)
T1 sequence (D9PZ08 1-490): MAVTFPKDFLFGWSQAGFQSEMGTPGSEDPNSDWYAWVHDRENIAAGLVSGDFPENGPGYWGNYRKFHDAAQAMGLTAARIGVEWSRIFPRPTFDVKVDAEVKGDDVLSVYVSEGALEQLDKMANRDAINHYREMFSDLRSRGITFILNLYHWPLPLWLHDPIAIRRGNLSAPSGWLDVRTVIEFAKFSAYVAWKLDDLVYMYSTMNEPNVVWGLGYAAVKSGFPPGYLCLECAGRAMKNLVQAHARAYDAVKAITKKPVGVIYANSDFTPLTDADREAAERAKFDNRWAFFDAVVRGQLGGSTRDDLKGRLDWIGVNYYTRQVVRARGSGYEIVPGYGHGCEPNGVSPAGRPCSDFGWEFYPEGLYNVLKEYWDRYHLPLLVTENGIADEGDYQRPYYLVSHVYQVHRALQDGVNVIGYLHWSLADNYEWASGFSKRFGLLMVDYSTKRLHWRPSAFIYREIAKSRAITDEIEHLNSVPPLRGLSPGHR

[2] = substrate: O=[N+]([O-])c1ccc(O[C@@H]2OC[C@@H](O)[C@H](O)[C@H]2O)cc1; experiment: purified protein; format: biochemical, Acidilobus saccharovorans; conditions: 0.1 M sodium phosphate pH 7.0, 93°C
[3] = substrate: O=[N+]([O-])c1ccc(O[C@@H]2O[C@H](CO)[C@@H](O)[C@H](O)[C@@H]2O)cc1; experiment: purified protein; format: biochemical, Acidilobus saccharovorans; conditions: 0.1 M sodium phosphate pH 7.0, 93°C
[4] = substrate: O=[N+]([O-])c1ccc(O[C@@H]2O[C@H](CO)[C@@H](O)[C@H](O)[C@H]2O)cc1; experiment: purified protein; format: biochemical, Acidilobus saccharovorans; conditions: 0.1 M sodium phosphate pH 7.0, 93°C
[5] = substrate: O=[N+]([O-])c1ccc(O[C@@H]2O[C@H](CO)[C@H](O)[C@H](O)[C@H]2O)cc1; experiment: purified protein; format: biochemical, Acidilobus saccharovorans; conditions: 0.1 M sodium phosphate pH 7.0, 93°C
[6] = substrate: O=[N+]([O-])c1ccccc1O[C@@H]1O[C@H](CO)[C@H](O)[C@H](O)[C@H]1O; experiment: purified protein; format: biochemical, Acidilobus saccharovorans; conditions: 0.1 M sodium phosphate pH 7.0, 93°C

For `OC[C@H]1OC(O)[C@H](O)[C@@H](O)[C@@H]1O` (stereo partly drawn) [glucose], the “K i′” value [1] was 158 mM.

B1: Asac_1390 (Acidilobus saccharovorans 345-15) (protein)
chain: T1 sequence (D9PZ08 1-490)
notes: full length, 490 residues, about 55 kDa on SDS-PAGE; pQE60 NcoI/BglII, expressed in E. coli DLT1270 pRARE2; purified by double heat treatment; no secretion signal; no tag mentioned (reverse primer carries the stop codon)
Work on B1 yielded a Km [2] of 4650 µM, a Vmax [2] of 124 µmol/min/mg and a kcat [2] of 115 s⁻¹. It also gave a kcat/Km [2] of 24600 M⁻¹ s⁻¹, a Km [3] of 2400 µM and a Vmax [3] of 62.8 µmol/min/mg. For the same molecule, the kcat [3] was 58.2 s⁻¹, the kcat/Km [3] was 24200 M⁻¹ s⁻¹ and the Km [4] was 240 µM. For the same molecule, the Vmax [4] was 344 µmol/min/mg, the kcat [4] was 318 s⁻¹ and the kcat/Km [4] was 1.33e+06 M⁻¹ s⁻¹. It also gave a Km [5] of 2900 µM, a Vmax [5] of 499 µmol/min/mg and a kcat [5] of 462 s⁻¹. The kcat/Km [5] was 160000 M⁻¹ s⁻¹, the Km [6] was 2000 µM and the Vmax [6] was 469 µmol/min/mg. It also gave a kcat [6] of 434 s⁻¹ and a kcat/Km [6] of 217000 M⁻¹ s⁻¹.
